Values belong to the molecule of their own block, whether it stands above or below them. Residues, ends and D or L forms follow the SMILES beside them.
Assays:
ERK2 [1] = biological target: T1, ERK2 (Rattus norvegicus, UniProt P63086); assay: Steady-state kinetics: inhibition of Ets phosphorylation by ERK2; type: biochemical; conditions: 1 mM MgATP
T1 construct: made in house
Protocol: Activated tagless ERK2 was generated essentially as described in (Kaoud, T.S. et al. manuscript in preparation). Expression and purification of Ets-1 (1-138) was followed by the method described in the previously published literature.
(§1) zReactions were carried out at 27°C in kinase assay buffer (25 mM HEPES pH 7.4, 100 mM KCl, 2 mM DTT, 40 µg/mL BSA, and 20 mM MgCl2) containing 2 nM ERK2 and varied concentrations of substrates and inhibitors. Rates were measured under conditions where total product formation represented less than 10% of the initial substrate concentrations. The reaction was incubated for 10 min before initiation by addition of enzyme and quantified as described previously. Initial rates were determined by linear least squares fitting to plots of product against time. Reciprocal plots of 1/v against 1/s were checked for linearity, before the data were fitted to eqn. 1 using a non-linear least squares approach, assuming equal variance for velocities, using the program Kaleidagraph 3.5 (Synergy software). The intercepts [drawing 1] and slopes [drawing 2] obtained from these fits were then plotted against either the inhibitor concentration (i) (for inhibition experiments) or the reciprocal of the non-varied substrate concentration (1/s) (for initial velocity experiments). These plots were used to determine the appearance of the overall kinetic equation. Values for kinetic constants were then obtained using the program Scientist (Micromath) by fitting the kinetic data to the relevant over-all equation. Data conforming to a sequential initial velocity pattern were fitted to eqn 2; data conforming to linear competitive inhibition were fitted to eqn. 3; data conforming to hyperbolic mixed inhibition were fitted to eqn. 4. Dose-response curves for data conforming to linear inhibition were fitted to eqn. 5; and for data conforming to hyperbolic inhibition to eqn. 6. [drawing 3] (1) [drawing 4] (2) [drawing 5] (3) [drawing 6] (4) [drawing 7] (5) [drawing 8] (6)

ERK2 [2] = biological target: T1, ERK2; assay: Steady-state kinetics: inhibition of Δ23N-Ets phosphorylation by ERK2; type: biochemical; conditions: Δ23N-Ets 50 µM, 1 mM MgATP, Lig-D 0–200 µM (eqn 6) or Lig-F 0–400 µM (eqn 5); fitted k0 5.5±0.1 s^−1 (Lig-D), 5.4±0.1 s^−1 (Lig-F); read-out: K50, concentration giving half the maximal change in kobs for phosphorylation of Δ23N-Ets
Protocol: as §1, with “Data conforming to a sequential initial velocity pattern were fitted to eqn 2; data conforming to linear competitive inhibition were fitted to eqn. 3; data conforming to hyperbolic mixed inhibition were fitted to eqn. 4. Dose-response curves for data conforming to linear inhibition were fitted to eqn. 5; and for data conforming to hyperbolic inhibition to eqn. 6. [drawing 3] (1) [drawing 4] (2) [drawing 5] (3) [drawing 6] (4) [drawing 7] (5) [drawing 8] (6)” left out

ERK2 [3] = biological target: T1, ERK2; assay: Steady-state parameters for phosphorylation of Ets and N-terminal Ets mutants by ERK2; type: biochemical; conditions: phosphorylation by ERK2 (2 nM), 27°C
Protocol: pET-28a Ets was PCR amplified with a forward primer containing an NdeI site (encoding the initial methionine) followed by the codon encoding Phe-24 (5′-GG GAATTCCATATGTTCCCTTCCCCGGACATG-3′) and an outer reverse primer (5′-GCTAGTTATTGCTCAGCGGTGG-3′) using the following PCR conditions: 94°C for 5 min to denature the complementary strands; 30 cycles of 55°C for 30 sec to anneal the primers, extension for 1 min at 72°C, followed by a denaturation step at 94°C for 45 sec; complementary strands were extended a final 10 min at 72°C. The N-terminal mutant PCR product was digested with NdeI and HindIII and ligated into NdeI-HindIII digested pET-28a. All proteins produced from pET-28a have an N-terminal sequence of […]- prior to the initial methionine encoded by the Ets cDNA giving EtsΔ24-138 an approximate mass of 15, 391 Da whereas Ets 1-138 has a mass of 17, 681 Da (lacking the initial methionine).
pET28a-Ets was modified by overlap extension polymerase chain reaction to construct the single cysteine mutant of Ets (C99A/C106A/C112A) in an Ets S26A background as reported elsewhere. Mutations were produced by a single-step PCR reaction using the following PCR amplification reaction (50 µL) contained Phusion DNA polymerase GC buffer, 200 µM each of the four deoxynucleoside triphosphates, 2 mM MgCl2, 3% DMSO, 80 ng of template DNA (Ets-C31 pET28a vector), 0.5 µM primers forward and reverse, and 1 µL of Phusion DNA polymerase (Finnzymes, USA, Product # F-530-S). […]
zReactions were carried out at 27°C in kinase assay buffer (25 mM HEPES pH 7.4, 100 mM KCl, 2 mM DTT, 40 µg/mL BSA, and 20 mM MgCl2) containing 2 nM ERK2 and varied concentrations of substrates and inhibitors. Rates were measured under conditions where total product formation represented less than 10% of the initial substrate concentrations. The reaction was incubated for 10 min before initiation by addition of enzyme and quantified as described previously. Initial rates were determined by linear least squares fitting to plots of product against time. […]

ERK2 [4] = biological target: T1, ERK2; conditions: stopped-flow; cited from earlier work
Text: Since the seminal paper by Wright the role of intrinsically disordered regions of proteins has been a topic of great interest. […] In fact, many docking sites for the DRS of a MAPK are found at the extreme termini of MAPK ligands, such as the upstream activators the MKKs, and may be disordered. For examp ...

[5] = fit of Lig-D inhibition data (Fig. 5D), eqn 4, Ets 3–59 µM
[6] = fit of Lig-F inhibition data (Fig. 5B), eqn 3, Ets 2–12 µM
[7] = 25 mM HEPES pH 7.4, 100 mM KCl, 20 mM MgCl2

T1 sequence (P63086 whole entry): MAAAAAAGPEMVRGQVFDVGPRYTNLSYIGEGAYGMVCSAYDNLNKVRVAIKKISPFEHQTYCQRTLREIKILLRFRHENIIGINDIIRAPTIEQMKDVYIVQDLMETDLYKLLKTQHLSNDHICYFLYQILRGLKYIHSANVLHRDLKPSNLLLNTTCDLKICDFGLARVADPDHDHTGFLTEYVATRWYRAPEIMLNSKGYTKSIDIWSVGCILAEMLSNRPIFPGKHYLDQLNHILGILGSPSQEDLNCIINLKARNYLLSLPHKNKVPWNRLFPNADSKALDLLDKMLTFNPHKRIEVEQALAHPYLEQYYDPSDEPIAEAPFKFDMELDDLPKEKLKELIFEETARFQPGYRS

- IC50 (ERK2 [1]; Ets 6.4 µM, peptide 0–400 µM, 2 nM ERK2, 27°C, HEPES pH 7.4, fit eqn 6 (Lig-D, partial) or eqn 5 (Lig-F, full), fitted k0 8.0±0.2 s^−1 (Lig-D), 10.3±0.2 s^−1 (Lig-F), read-out: K50, concentration giving half the maximal change in kobs for phosphorylation of Ets): 33.5 ± 1.9 µM
- Ki (ERK2 [1]; Lig-F 0–200 µM, Ets 2–12 µM, fit eqn 3, read-out: apparent competitive inhibition constant (Ki), full linear competitive inhibition vs Ets): 22 ± 1.9 µM
- IC50 (ERK2 [2]): 43 ± 2 µM
Molecule: CC(=O)N[C@@H](Cc1ccc(O)cc1)C(=O)N[C@@H](C)C(=O)N1CCC[C@H]1C(=O)N[C@@H](CCCNC(=N)N)C(=O)N[C@@H](C)C(=O)N1CCC[C@H]1C(=O)N[C@@H](C)C(=O)N[C@@H](CCCCN)C(=O)N[C@@H](CC(C)C)C(=O)N[C@@H](C)C(=O)N[C@@H](Cc1ccccc1)C(=O)N[C@@H](CCC(N)=O)C(=O)N[C@@H](Cc1ccccc1)C(=O)N1CCC[C@H]1C(=O)N[C@@H](CO)C(=O)N[C@@H](CCCNC(=N)N)C(N)=O [Lig-F] (Ac-YAPRAPAKLAFQFPSR-NH2)

- apparent Michaelis constant for Ets (ERK2 [1]; [5]): 6.3 ± 1.7 µM
- apparent catalytic constant for Ets phosphorylation (ERK2 [1]; [5]): 14.1 ± 1.3 s⁻¹
- apparent Michaelis constant for Ets (ERK2 [1]; [6]): 5.6 ± 0.7 µM
- apparent catalytic constant for Ets phosphorylation (ERK2 [1]; [6]): 14.9 ± 0.8 s⁻¹
B1: Ets: His-tagged murine Ets-1 residues 1-138, ERK2 substrate; N-terminus MKAAVDLKPTLTII (protein, UniProt P27577 1-138, looked up, fragment)
chain: MKAAVDLKPTLTIIKTEKVDLELFPSPDMECADVPLLTPSSKEMMSQALKATFSGFTKEQQRLGIPKDPRQWTETHVRDWVMWAVNEFSLKGVDFQKFCMSGAALCALGKECFLELAPDFVGDILWEHLEILQKEDVK
modifications: His tag
- k cat/K m (ERK2 [3]; 25 mM HEPES pH 7.4): 1e+06 M⁻¹ s⁻¹
- K m (ERK2 [3]; [7]): 17.0 ± 4.0 µM
- k cat (ERK2 [3]; [7]): 18.0 ± 2.0 s⁻¹

B2: phospho Ets: Ets phosphorylated by ERK2 (on Thr-38), product of the reaction (protein, UniProt P27577 1-138, looked up, fragment)
chain: B1 chain
modifications: phosphorylated Thr38; His tag
notes: Ets phosphorylated by ERK2 (on Thr-38), product of the reaction
- rate constant for association k on (ERK2 [4]): 5e+06 M⁻¹ s⁻¹
- rate constant for dissociation k (ERK2 [4]): > 100 s⁻¹

Reference: PMC3073974, “A Model of a MAPK•Substrate Complex in an Active Conformation: A Computational and Experimental Approach” (PLoS ONE, 2011)
